The nature of this data set: protein stability index of a GFP-peptide fusion (GPS, HEK-293T) (PSI 1-6); higher = more stable. Particulars: c terminus: a fixed tail appended.

± gives the standard deviation.
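Note: 24-mer peptide tiles fused after GFP, lentivirally expressed, FACS-sorted into six equal bins by GFP/DsRed ratio, decoded by Illumina sequencing, PSI is the read-weighted mean bin number.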

Turning to PAISITENVLHFKAQGHGAKGDNV [HACD3], the protein stability index amounted to 4.54 ± 0.095 (treatment: DMSO) and 4.57 ± 0.37 (treatment: MLN4924 1 uM, 8 h).

With IYCGAGVQKDHENYMKILLKVGGI [PCMTD1], the protein stability index is, setting by setting: (treatment: DMSO) 2.26 ± 0.17; (treatment: MLN4924 1 uM, 8 h) 2.25 ± 0.44.

Take VEEVDMAEEFEQPTLSCEKYLTYD [ELOA2]: the protein stability index (treatment: DMSO) was determined as 5.09 ± 0.32 and the protein stability index (treatment: MLN4924 1 uM, 8 h) was 5.19 ± 0.39.

As to VDSEQLRRDCDALMAGCIQEARER [CDKN1A], the protein stability index is, setting by setting: (treatment: DMSO) 4.82 ± 0.15; (treatment: MLN4924 1 uM, 8 h) 4.7 ± 0.28.

For the sequence IIGDYFSDQDPRVRTAAIKAMLQL [INTS4], the protein stability index is, setting by setting: (treatment: DMSO) 2.19 ± 0.28; (treatment: MLN4924 1 uM, 8 h) 2.33 ± 0.2.

For the sequence PRVRELLLDALSPEQLVLTLLEAE [ESR2], the protein stability index is, setting by setting: (treatment: DMSO) 2.22 ± 0.22; (treatment: MLN4924 1 uM, 8 h) 2.22 ± 0.26.

With SHHSKHKAPSKLGLIISGPILQEG [DLC1], the protein stability index turned out to be 3.08 ± 0.2 (treatment: DMSO) and 3.28 ± 0.13 (treatment: MLN4924 1 uM, 8 h).

As for LSGVEEELQRTKQEVLSLRRENST [SASS6], the protein stability index came out at 5.07 ± 0.22 (treatment: DMSO) and 5 ± 0.21 (treatment: MLN4924 1 uM, 8 h).

As for ECDNMLMLLSVSQSMSEEEREKVT [SEPHS2], the protein stability index is, setting by setting: (treatment: DMSO) 4.58 ± 0.12; (treatment: MLN4924 1 uM, 8 h) 4.58 ± 0.24.

Turning to SILFGFWTSFICDTYIVLAWISKI [SMIM2], the protein stability index by setting is: (treatment: DMSO) 3.15 ± 0.34; (treatment: MLN4924 1 uM, 8 h) 3.31 ± 0.25.

Turning to GDLFNGRYHVIRKLGWGHFSTVWL [SRPK2], the protein stability index worked out at 2.19 ± 0.07 (treatment: DMSO) and 2.17 ± 0.81 (treatment: MLN4924 1 uM, 8 h).

YTRIWSLHDARLLRTIPSPYPASK [DCAF4]: the protein stability index (treatment: DMSO) worked out at 2.46 ± 0.48 and the protein stability index (treatment: MLN4924 1 uM, 8 h) was found to be 2.87 ± 0.17.

Consider FYPVMLILFLVIGGMLNFMMHDQR [SOAT2], for which the protein stability index by setting is: (treatment: DMSO) 3.34 ± 0.36; (treatment: MLN4924 1 uM, 8 h) 2.95 ± 0.11.

Take GGANDRWVRSVSFSHDGLHVASLA [WSB1]: the protein stability index is, setting by setting: (treatment: DMSO) 3.08 ± 0.3; (treatment: MLN4924 1 uM, 8 h) 3.16 ± 0.42.

Take TAPSGGQWGAEPEGSCYQTFRQYC [RNF208]: the protein stability index (treatment: DMSO) is 2.75 ± 0.29 and the protein stability index (treatment: MLN4924 1 uM, 8 h) came to 2.89 ± 0.18.

For the sequence ETFIVPDSFLVALDMDDGTLSFIV [SPSB1], the protein stability index is, setting by setting: (treatment: DMSO) 2.66 ± 0.33; (treatment: MLN4924 1 uM, 8 h) 2.58 ± 0.54.

Regarding RVRLDSELRNVQDVVEDYKKRYEE [KRT71], the protein stability index by setting is: (treatment: DMSO) 4.81 ± 0.28; (treatment: MLN4924 1 uM, 8 h) 4.97 ± 0.32.

Turning to SGQYRELGGAIDFGAAYVLEQASS [ATL3], the protein stability index stood at 3.47 ± 0.27 (treatment: DMSO) and 3.61 ± 0.41 (treatment: MLN4924 1 uM, 8 h).

As to VKHQCCPGCGYFCTAGNFMECQPE [EHMT1], the protein stability index was 3.31 ± 0.19 (treatment: DMSO) and 3.31 ± 0.5 (treatment: MLN4924 1 uM, 8 h).

For the sequence EEVRQLLETMARNEVIADINCKGR [OSBPL1A], the protein stability index runs as follows: (treatment: DMSO) 3.16 ± 0.33; (treatment: MLN4924 1 uM, 8 h) 3.01 ± 0.46.

In the case of DITDDCICDLARSIDFNKDGHIDI [PPEF2], the protein stability index is, setting by setting: (treatment: DMSO) 3.87 ± 0.19; (treatment: MLN4924 1 uM, 8 h) 4.05 ± 0.39.

Take CSNLVKTRRRAVGWWKRLFTLKEE [ARL6IP1]: the protein stability index is, setting by setting: (treatment: DMSO) 2.42 ± 0.28; (treatment: MLN4924 1 uM, 8 h) 2.6 ± 0.21.

For KGLNARMMRGLSYSLTTSSTHKSS [RAB40A], the protein stability index is, setting by setting: (treatment: DMSO) 3.39 ± 0.28; (treatment: MLN4924 1 uM, 8 h) 3.52 ± 0.32.

For PFTPLHIKVKPKRVGIFLDYEAGT [TRIM39], the protein stability index runs as follows: (treatment: DMSO) 2.45 ± 0.28; (treatment: MLN4924 1 uM, 8 h) 2.67 ± 0.26.

In the case of GKAYRFLFGFSAVSIMYLVLVLAV [JAGN1], the protein stability index is 2.22 ± 0.1 (treatment: DMSO) and 2.12 ± 0.35 (treatment: MLN4924 1 uM, 8 h).

LPSVPVSVPASDPRSCSSGPAGPY [PLEKHN1]: the protein stability index is, setting by setting: (treatment: DMSO) 4.35 ± 0.21; (treatment: MLN4924 1 uM, 8 h) 4.39 ± 0.17.

For the sequence QKRLKSKLLDHDNVKYLKKILDEL [GDAP1], the protein stability index was 2.1 ± 0.24 (treatment: DMSO) and 2.19 ± 0.22 (treatment: MLN4924 1 uM, 8 h).

With DPNSQVGACIVNSENKIVGIGYNG [DCTD], the protein stability index amounted to 4.56 ± 0.15 (treatment: DMSO) and 4.56 ± 0.48 (treatment: MLN4924 1 uM, 8 h).

Regarding LQCRSPPRLHGAKAILDAEPGPRP [TBC1D10A], the protein stability index worked out at 4.46 ± 0.12 (treatment: DMSO) and 4.48 ± 0.12 (treatment: MLN4924 1 uM, 8 h).

ESLPVSLGPESWQQIAMDPEEVKS [BCL2L13]: the protein stability index amounted to 5.39 ± 0.21 (treatment: DMSO) and 5.27 ± 0.31 (treatment: MLN4924 1 uM, 8 h).

Turning to FNGELPNGRHKIPESQFPEFSTSL [SRPK2], the protein stability index (treatment: DMSO) is 3.51 ± 0.22 and the protein stability index (treatment: MLN4924 1 uM, 8 h) stood at 3.72 ± 0.32.

For the sequence SSFSLLLDLLSELYQKQPKIGYHL [INTS3], the protein stability index came out at 3.05 ± 0.2 (treatment: DMSO) and 2.86 ± 0.62 (treatment: MLN4924 1 uM, 8 h).

As for NCPEFPPPDRTLGCWATDAAPAAG [RSPH3], the protein stability index reads like this: (treatment: DMSO) 4.4 ± 0.4; (treatment: MLN4924 1 uM, 8 h) 4.47 ± 0.3.

Take EEMAKSSRASAARVGQLQEALNER [LRRC45]: the protein stability index worked out at 4.97 ± 0.46 (treatment: DMSO) and 5.12 ± 0.28 (treatment: MLN4924 1 uM, 8 h).

Consider CQFRPPVRVNDGGGSHPSRPNSRH [VDR], for which the protein stability index runs as follows: (treatment: DMSO) 4.55 ± 0.34; (treatment: MLN4924 1 uM, 8 h) 4.77 ± 0.076.

With KGPGAPQYPAGTQGEQLEVPERLL [SPSB2], the protein stability index by setting is: (treatment: DMSO) 4.93 ± 0.15; (treatment: MLN4924 1 uM, 8 h) 4.72 ± 0.26.

For the sequence AKRCTVIGGSGFLGQHMVEQLLAR [NSDHL], the protein stability index by setting is: (treatment: DMSO) 2.1 ± 0.2; (treatment: MLN4924 1 uM, 8 h) 2.21 ± 0.41.

As to TSTFEATSEGTLELQQRNPKAERL [ZNF232], the protein stability index is 5.2 ± 0.2 (treatment: DMSO) and 5.42 ± 0.14 (treatment: MLN4924 1 uM, 8 h).

With FGYLGDRYNRKYLMCGGIAFWSLV [SPNS1], the protein stability index runs as follows: (treatment: DMSO) 3.1 ± 0.51; (treatment: MLN4924 1 uM, 8 h) 2.75 ± 0.71.

Take LEGSHDTANCEACTLGICGQGLKS [RTP4]: the protein stability index was 5.13 ± 0.25 (treatment: DMSO) and 5.11 ± 0.12 (treatment: MLN4924 1 uM, 8 h).

As to SGMVTIITGLPLDNPSVLSGPMQA [SMG5], the protein stability index runs as follows: (treatment: DMSO) 2.32 ± 0.35; (treatment: MLN4924 1 uM, 8 h) 2.14 ± 0.39.

For the sequence EKNRKDAEDWFFSKTEELNREVAT [KRT17], the protein stability index reads like this: (treatment: DMSO) 4.5 ± 0.14; (treatment: MLN4924 1 uM, 8 h) 4.71 ± 0.27.

For the sequence AMKITQEPQGLGYWEAWRHHCQGK [SPACA3], the protein stability index by setting is: (treatment: DMSO) 3.05 ± 0.18; (treatment: MLN4924 1 uM, 8 h) 3.17 ± 0.29.

APGYDPETVTVTVGPAEPTLVNFH [CPN1] registered a protein stability index (treatment: DMSO) of 3.89 ± 0.32 and a protein stability index (treatment: MLN4924 1 uM, 8 h) of 3.99 ± 0.35.

For the sequence DDNSCEDLEEERREEEEKTPPETK [PCMTD2], the protein stability index is, setting by setting: (treatment: DMSO) 5.73 ± 0.34; (treatment: MLN4924 1 uM, 8 h) 5.54 ± 0.25.

As to PLPPPPPAFKSMEVANFYYEADCL [CEBPB], the protein stability index is, setting by setting: (treatment: DMSO) 3.9 ± 0.31; (treatment: MLN4924 1 uM, 8 h) 3.62 ± 0.33.

Regarding QREEHELVHVMERSLSPSLSSVDM [RAD54B], the protein stability index was 4.62 ± 0.31 (treatment: DMSO) and 4.76 ± 0.11 (treatment: MLN4924 1 uM, 8 h).

For EETRVWHRRDGKWQNVHFHCSGAP [CAMK2B], the protein stability index came out at 3.1 ± 0.15 (treatment: DMSO) and 3.11 ± 0.32 (treatment: MLN4924 1 uM, 8 h).

On to FSLEQQLDDEDDDEEDCPNPEEYN [SRPK2], for which the protein stability index reads like this: (treatment: DMSO) 5.61 ± 0.27; (treatment: MLN4924 1 uM, 8 h) 5.71 ± 0.13.

TVDGLHFNSTYNARVKAFNKTGVS [TRIM9]: the protein stability index is 3.17 ± 0.19 (treatment: DMSO) and 3.46 ± 0.086 (treatment: MLN4924 1 uM, 8 h).

With FVVGNCLQIASDSHQYDRIYCGAG [PCMTD1], the protein stability index is 2.45 ± 0.38 (treatment: DMSO) and 2.62 ± 1 (treatment: MLN4924 1 uM, 8 h).

As for GRFKLSIPHTHLLATLDPLALDRE [WDR88], the protein stability index reads like this: (treatment: DMSO) 2.76 ± 0.24; (treatment: MLN4924 1 uM, 8 h) 2.76 ± 0.34.

Sequence EDTDPSTLSFNMSDKYPIQDTELP [EDARADD] registered a protein stability index (treatment: DMSO) of 5.11 ± 0.12 and a protein stability index (treatment: MLN4924 1 uM, 8 h) of 4.89 ± 0.089.

The values above are taken from the supplement of paper PMC10567573.
